In publication PMC7135997, “Cardiac myosin regulatory light chain kinase modulates cardiac contractility by phosphorylating both myosin regulatory light chain and troponin I” (The Journal of Biological Chemistry, 2020):

Tests used:
rat cardiac troponin I = target: T1, rat cardiac troponin I (rat, UniProt P23693 1-211); experiment: SEC-MALS; complex reconstituted from the three separately purified subunits mixed 1:1:1 in 6 mol/liter urea, dialysed, purified on Resource-Q; Superdex 200 5/150 GL in 50 mmol/liter Tris-HCl (pH 7.4), 5 mM MgCl2, 1 mmol/liter CaCl2, 100 mM NaCl, 100 mmol/liter tris(2-carboxyethyl)phosphine; also characterized by HPLC and ESI-MS; conditions: both partners purified
T1 construct: cardiac troponin I, rat, cloned from a rat heart cDNA library into pET3a, codon-optimized; No tag is named; unphosphorylated recombinant protein; also called rcTnI; rat cTnI; source: E. coli BL21(DE3)-RIPL, inclusion bodies, purified (CM Sepharose in 6 mol/liter urea)
T1 sequence (P23693 whole entry): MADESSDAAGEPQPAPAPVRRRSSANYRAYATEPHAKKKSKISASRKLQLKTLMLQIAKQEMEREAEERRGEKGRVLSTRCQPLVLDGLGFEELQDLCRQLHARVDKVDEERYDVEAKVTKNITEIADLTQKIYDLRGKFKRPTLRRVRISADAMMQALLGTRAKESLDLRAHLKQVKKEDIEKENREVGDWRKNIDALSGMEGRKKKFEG

rat cardiac troponin C = rat cardiac troponin C (rat, UniProt Q4PP99 1-161); experiment: as above; conditions: both partners purified

B1: rat cardiac troponin T (natural protein)
chain: not shown
notes: cardiac troponin T, rat, cloned from a rat heart cDNA library into pET3a, codon-optimized; also called rat cTnT; rcTnT; source: E. coli BL21(DE3)-RIPL, soluble fraction, purified (ion exchange, similar method to rcTnI)
- stoichiometry N (rat cardiac troponin I): 1
- stoichiometry N (rat cardiac troponin C): 1
